Laboratory results published in patent US9616101B2, “Differentiation marker and differentiation control of eye cell” (Kyoto Prefectural Public University Corporation, priority 2012, dated 2017).

System: cytosol β-catenin and p-LRP6
Experiment: Western blotting of Wnt/β-catenin-associated molecules in human CEC with or without RSPO1
Assay type: cell-based
Description: For Western blotting, the following rabbit polyclonal antibodies: anti-LRP6, p-LRP6 (Cell Signaling Technology, Inc., Beverly, Mass.), as well as the following mouse monoclonal antibodies: β-catenin (BD Biosciences) and β-actin (Sigma-Aldrich, St. Louis, Mo.); were used. As a secondary antibody, HRP-labeled anti-rabbit or mouse IgG (GE Healthcare, Piscataway, N.J.) was used. Recombinant human SHH, purmorphamine, cyclopamine and RSpos were purchased from R&D Systems Inc. (Minneapolis, Minn.).
Cultured human CEC was washed with PBS, and then, rinsed with a lysis buffer containing PBS, 1% TRITON™ X-100, 0.5 M EDTA, phosphatase inhibitor cocktail 2 (Sigma-Aldrich) and […] (Roche). Detection of activated β-catenin (non-membrane-bound type) was implemented according to the protocol previously reported [Aghib D F et al., Exp Cell Res., 1995; 218: 359-369]. In brief, a cell lysate treated with Con A Sepharose™ 4B (GE Healthcare) was incubated at 4° C. for 1 hour. After centrifugation at 4° C. for 10 minutes, the supernatant was transferred into a new tube, Con A Sepharose™ was added to each tube, and the resultant was incubated at 4° C. for 1 hour. Finally, after simple centrifugation, the supernatant was transferred into a new tube, and the protein concentration was determined.
Then, the protein was separated by SDS-PAGE, and transferred to a PVDF membrane. […]

B1: R-spondin 1: Recombinant Human R-spondin 1 (R&D Cat. 4645-RS); ligand of GPR49/LGR5 (protein, listed as Homo sapiens)
chain: MRLGLCVVALVLSWTHLTISSRGIKGKRQRRISAEGSQACAKGCELCSEVNGCLKCSPKLFILLERNDIRQVGVCLPSCPPGYFDARNPDMNKCIKCKIEHCEACFSHNFCTKCKEGLYLHKGRCYPACPEGSSAANGTMECSSPAQCEMSEWSPWGPCSKKQQLCGFRRGSEERTRRVLHAPVGDHAACSDTKETRRCTVRRVPCPEGQKRRKGGQGRRENANRNLARKESKEAGAGSRRRKGQQQQQQQGTVGPLTSAGPA
Cell transfected with GPR49/LGR5 and treated with RSPO1 (50 ng/ml), as compared with NT cell
  protein level of cytosol β-catenin and p-LRP6: clearly decreased
Cells transfected with NT and GPR49/LGR5, treated with RSPO1 (50 ng/ml), as compared with cell group not treated with RSPO1
  protein level of cytosol β-catenin and p-LRP6: decreased
